This assay has as its target AMBRA1 (activating molecule in beclin-1-regulated autophagy), endogenous in MDA-MB-231 cells (UniProt Q9C0C7). The assay can be described thus: anti-FLAG co-immunoprecipitation with proteomics (spectral counts). The conditions noted are these: parent: 0.
Sequence of UniProt Q9C0C7 (Q9C0C7 whole entry): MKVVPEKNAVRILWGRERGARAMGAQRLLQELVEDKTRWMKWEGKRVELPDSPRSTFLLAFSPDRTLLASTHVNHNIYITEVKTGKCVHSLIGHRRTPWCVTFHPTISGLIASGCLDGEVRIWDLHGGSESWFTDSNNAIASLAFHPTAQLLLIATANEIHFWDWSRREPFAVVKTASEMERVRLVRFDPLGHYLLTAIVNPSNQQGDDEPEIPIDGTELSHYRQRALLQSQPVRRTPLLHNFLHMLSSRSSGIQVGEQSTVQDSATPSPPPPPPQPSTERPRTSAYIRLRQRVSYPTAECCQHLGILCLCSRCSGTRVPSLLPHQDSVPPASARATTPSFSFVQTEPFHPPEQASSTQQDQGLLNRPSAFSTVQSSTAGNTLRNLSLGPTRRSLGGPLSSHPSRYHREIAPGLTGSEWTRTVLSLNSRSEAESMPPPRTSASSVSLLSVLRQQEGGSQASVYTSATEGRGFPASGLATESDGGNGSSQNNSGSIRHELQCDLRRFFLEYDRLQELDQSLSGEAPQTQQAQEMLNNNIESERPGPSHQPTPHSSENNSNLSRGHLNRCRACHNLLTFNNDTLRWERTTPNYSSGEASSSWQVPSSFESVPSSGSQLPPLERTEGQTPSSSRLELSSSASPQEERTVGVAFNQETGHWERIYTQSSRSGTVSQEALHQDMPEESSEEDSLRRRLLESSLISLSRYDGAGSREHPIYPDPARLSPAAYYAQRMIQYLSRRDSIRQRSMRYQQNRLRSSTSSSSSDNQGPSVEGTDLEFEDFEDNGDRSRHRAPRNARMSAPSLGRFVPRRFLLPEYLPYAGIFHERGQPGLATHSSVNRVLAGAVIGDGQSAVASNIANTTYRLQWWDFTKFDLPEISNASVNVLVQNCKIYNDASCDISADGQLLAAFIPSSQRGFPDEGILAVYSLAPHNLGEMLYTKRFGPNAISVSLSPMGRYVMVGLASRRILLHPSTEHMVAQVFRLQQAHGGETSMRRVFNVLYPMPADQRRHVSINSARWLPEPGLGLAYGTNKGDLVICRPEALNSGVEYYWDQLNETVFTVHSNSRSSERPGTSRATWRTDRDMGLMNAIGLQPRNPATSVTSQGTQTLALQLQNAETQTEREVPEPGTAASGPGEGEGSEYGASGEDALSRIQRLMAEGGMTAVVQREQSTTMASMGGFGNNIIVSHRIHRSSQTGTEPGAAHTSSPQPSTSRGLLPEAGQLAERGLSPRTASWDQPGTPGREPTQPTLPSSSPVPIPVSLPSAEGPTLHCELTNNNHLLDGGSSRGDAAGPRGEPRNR

“FLAG–Rab40c (wild type) in MDA-MB-231 cells (from UniProt Q96S21) 4A (211-LPLP-216 to 211-AAAA-216)”: the other: Spectral Counts (spectral counts) was found to be 7.

These data come from article PMC12045048.
